US20250090677A1 (MULTITUDE THERAPEUTICS, published 2025)

Legend:
[1] = target: T1, CDH6 on the cell surface of OVCAR-3 cells (human ovarian cancer cells) (human, UniProt P55285 54-790); assay: flow cytometry (FACS) on OVCAR-3 cells, antibody titration, labelled secondary antibody, MFI
T1 construct: whole, on cells; also called CDH6-positive human ovarian cancer cell line OVCAR-3
T1 sequence (looked up): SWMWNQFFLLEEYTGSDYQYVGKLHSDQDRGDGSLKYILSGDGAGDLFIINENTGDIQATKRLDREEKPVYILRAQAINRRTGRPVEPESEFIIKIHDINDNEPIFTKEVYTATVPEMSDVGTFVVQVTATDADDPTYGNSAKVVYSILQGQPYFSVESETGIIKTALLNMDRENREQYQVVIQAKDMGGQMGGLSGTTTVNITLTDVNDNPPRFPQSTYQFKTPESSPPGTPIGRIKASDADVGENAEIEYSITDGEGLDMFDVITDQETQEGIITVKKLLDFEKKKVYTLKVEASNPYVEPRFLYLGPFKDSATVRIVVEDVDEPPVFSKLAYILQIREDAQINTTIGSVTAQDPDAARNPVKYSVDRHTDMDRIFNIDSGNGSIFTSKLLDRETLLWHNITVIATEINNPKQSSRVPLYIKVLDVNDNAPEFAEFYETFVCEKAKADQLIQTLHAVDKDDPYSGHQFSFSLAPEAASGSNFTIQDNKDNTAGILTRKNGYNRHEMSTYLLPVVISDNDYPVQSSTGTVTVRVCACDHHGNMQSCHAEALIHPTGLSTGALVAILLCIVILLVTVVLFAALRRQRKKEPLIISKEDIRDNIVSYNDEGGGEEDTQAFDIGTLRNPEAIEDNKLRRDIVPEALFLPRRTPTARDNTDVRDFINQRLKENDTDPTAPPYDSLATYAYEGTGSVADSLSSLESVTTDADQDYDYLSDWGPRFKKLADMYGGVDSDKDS
Method: The binding EC50 of the humanized antibodies on tumor cell were tested as follow. Human ovarian cancer cell line OVCAR-3(purchased from National Collection of Authenticated Cell Cultures) cell culture was maintained in vitro as independent monolayer cultures at 37° C. in an atmosphere of 5% CO₂. The cells were harvested using trypsin-EDTA partial digestion followed by centrifugation at 1000 rpm for 5 minutes. The cell was resuspended in cold PBS and serial dilution of Ch069707 and CL069707-H1L1, CL069707-H1L2, CL069707-H2L1 and CL069707-H2L2 antibodies were added. Ch069707 antibody was a chimeric antibody. The variable regions were the same as those of CL069707, and the constant region was the same as human IgG1 constant regions (SEQ ID NO: 70 and SEQ ID NO: 71). The cell solutions were mixed, incubated at 4° C. and washed with cold PBS prior to addition of secondary antibody conjugates (for detection purposes). After incubation at 4° C., the cells were washed with PBS, and then subjected to flow cytometry (FACS) analysis.

human CDH10-ECD-His = target: T2, human CDH10-ECD-His (human, UniProt Q9Y6N8 55-613); assay: ELISA, antigen coated at 1 ug/mL, 3-fold dilutions of CL069707-H1L1, HRP anti-human antibody, OD450
T2 construct: extracellular domain; Bought protein; also called CDH10-ECD-His protein; not shown: His tag
T2 sequence (looked up): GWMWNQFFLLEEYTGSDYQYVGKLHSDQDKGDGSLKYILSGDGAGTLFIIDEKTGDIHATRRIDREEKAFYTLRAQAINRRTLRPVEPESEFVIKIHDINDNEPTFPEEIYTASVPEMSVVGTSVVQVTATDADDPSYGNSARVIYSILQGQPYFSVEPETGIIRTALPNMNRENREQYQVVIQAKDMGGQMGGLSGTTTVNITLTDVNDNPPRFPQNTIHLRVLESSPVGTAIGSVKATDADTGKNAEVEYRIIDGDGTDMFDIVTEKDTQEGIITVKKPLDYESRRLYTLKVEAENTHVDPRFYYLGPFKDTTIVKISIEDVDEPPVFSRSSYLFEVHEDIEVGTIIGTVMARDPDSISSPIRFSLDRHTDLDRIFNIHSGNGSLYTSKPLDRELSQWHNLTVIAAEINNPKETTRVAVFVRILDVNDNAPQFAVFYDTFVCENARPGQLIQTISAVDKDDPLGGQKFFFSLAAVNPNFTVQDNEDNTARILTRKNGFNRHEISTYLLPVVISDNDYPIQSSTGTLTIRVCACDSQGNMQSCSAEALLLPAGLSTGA
Method: CDH9 and […] are the most closely related family members to CDH6. Binding of CL069707-H1L1 on human CDH6, CDH9 and CDH10 ECD domains were analyzed by ELISA Binding Assay. Human […], CDH9-ECD-His and CDH10-ECD-His antigens were obtained from Acro Biosystems, Inc. 100 μL of 1 μg/mL of the antigens diluted in PBS were added to 96 well plates and incubated in 4° C. overnight. The plates were washed 3 times with 300 μL of washing buffer. Then 100 μL/well of 1% BSA blocking reagent were added to the plates, and incubated at 37° C. for 1 h then the blocking reagent were discarded. A 3-fold serial dilution of CL069707-H1L1 was added to the plates and then incubated at 37° C. for 1 h. Then the plates were washed 3 times with 300 μL of washing buffer. 100 μL/well of HRP-conjugated anti-Human antibody diluted in 1% BSA were added to the plates and then incubated at 37° C. for 1 h. The plates were washed 3 times with 300 μL of washing buffer. 100 μL/well of TMB substrate were added to the plates and incubated for about 10 min in room temperature. Then the reaction was stopped with 100 μL/well of stopping solution. OD450 was read with a plate reader and the data were processed.

- EC50 (read off the curve) [1]: ~1 nM
- binding result (human CDH10-ECD-His): no binding (tested: 100 nM)
B1: CL069707-H1L1 (antibody, human IgG1, kappa, V domains shown)
VH: EVQLVESGGGLVQPGGSLRLSCAASGFTFTTYAMNWVRQAPGKGLEWVARIRIKNNNYATYYADSVTDRFTISRDDSKNSLYLQMNSLKTEDTAVYYCVRPDYGNYGLAYWGQGTLVTVSS
VL: DIQLTQSPSSLSASVGDRVTITCSASSSISSHYLHWYQQKPGKSPKLLIYRSFYLASGVPSRFSGSGSGTDFTLTISSLQPEDFATYYCQQDIVPLTFGQGTKLEIKR
notes: Humanized IgG1/kappa, produced in 293 cells; also called humanized CL069707-H1L1
